Measured values from paper PMC9937993, “Structures of the NDP-pyranose mutase belonging to glycosyltransferase family 75 reveal residues important for Mn^2+ coordination and substrate binding” (The Journal of Biological Chemistry, 2023).

Target: the molecule itself
Assay: SEC; size exclusion chromatography of AtRGP2 WT and its F280D/L283D/Y287D mutant (Fig. S12A); column and buffer not given

B1: AtRGP2 wildtype, recombinant (enzyme)
chain: not shown
notes: AtRGP2, UniProtKB Q9LFW1; codon-optimized gene cloned into pET32a; Only the vector pET32a and the nickel-sepharose purification are stated; also called AtRGP2 WT; source: E. coli BL21-Gold (DE3), purified (nickel-sepharose, Superdex 200)
B1: binds.
